The values that follow come from PMC3416671, “Neuronal RING finger protein 11 (RNF11) regulates canonical NF-κB signaling” (Journal of Neuroinflammation, 2012).

In this test the target is T1, endogenous RNF11 (murine primary cortical neurons) (mouse (endogenous in primary cortical …, UniProt Q9QYK7 1-154)).
T1 construct: RING finger protein 11 (RNF11), endogenous in primary cortical neurons of C57BL/6 mice; also called RING finger protein 11; source: endogenous, murine primary cortical neuron lysate
T1 sequence (looked up): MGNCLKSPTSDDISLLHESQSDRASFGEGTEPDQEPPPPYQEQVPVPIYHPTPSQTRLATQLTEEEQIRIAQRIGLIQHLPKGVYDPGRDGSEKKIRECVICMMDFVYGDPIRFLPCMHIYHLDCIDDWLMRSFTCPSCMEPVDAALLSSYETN
The test can be described thus: co-IP; lysates of murine primary cortical neurons stimulated with 10 ng/ml TNF-α for 0 or 30 minutes; IP with RNF11 antibody; control IP with antibody omitted; immunoblot with anti-A20 and Itch; densitometry normalised to input, 0 minutes set at 100%. Conditions: partners not purified. A general note: Immunoblotting shows a protein as a band on a membrane.

B1: endogenous A20 (murine primary cortical neurons) (natural protein, UniProt Q60769 1-775, looked up)
chain: MAEQLLPQALYLSNMRKAVKIRERTPEDIFKPTNGIIYHFKTMHRYTLEMFRTCQFCPQFREIIHKALIDRSVQASLESQKKLNWCREVRKLVALKTNGDGNCLMHAACQYMWGVQDTDLVLRKALCSTLKETDTRNFKFRWQLESLKSQEFVETGLCYDTRNWNDEWDNLVKMASADTPAARSGLQYNSLEEIHIFVLSNILRRPIIVISDKMLRSLESGSNFAPLKVGGIYLPLHWPAQECYRYPIVLGYDSQHFVPLVTLKDSGPELRAVPLVNRDRGRFEDLKVHFLTDPENEMKEKLLKEYLIVMEIPVQGWDHGTTHLINAAKLDEANLPKEINLVDDYFELVQHEYKKWQENSDQARRAAHAQNPLEPSTPQLSLMDIKCETPNCPFFMSVNTQPLCHECSERRQKNQSKLPKLNSKLGPEGLPGVGLGSSNWSPEETAGGPHSAPPTAPSLFLFSETTAMKCRSPGCPFTLNVQHNGFCERCHARQINASHTADPGKCQACLQDVTRTFNGICSTCFKRTTAEPSSSLTSSIPASCHQRSKSDPSQLIQSLTPHSCHRTGNVSPSGCLSQAARTPGDRAGTSKCRKAGCMYFGTPENKGFCTLCFIEYRENKQSVTASEKAGSPAPRFQNNVPCLGRECGTLGSTMFEGYCQKCFIEAQNQRFHEARRTEEQLRSSQHRDMPRTTQVASRLKCARASCKNILACRSEELCMECQHLSQRVGSVAHRGEPTPEEPPKQRCRAPACDHFGNAKCNGYCNECYQFKQMYG
notes: A20 (TNF-α-induced protein 3, TNFAIP3), endogenous in primary cortical neurons of C57BL/6 mice; also called TNFAIP3; source: endogenous, murine primary cortical neuron lysate
With B1, the “A20 immunoreactivity in RNF11 immunoprecipitates after 30 minutes of TNF-α, relative to 0 minutes (100%)” value was found to be 129%.

B2: endogenous Itch (murine primary cortical neurons) (natural protein)
chain: not shown
notes: E3 ligase Itch (also known as AIP4), endogenous in primary cortical neurons of C57BL/6 mice; also called AIP4; source: endogenous, murine primary cortical neuron lysate
Regarding B2, the “Itch immunoreactivity in RNF11 immunoprecipitates after 30 minutes of TNF-α, relative to 0 minutes (100%)” value came to 166%.
